Experimental data reported in US9932382B2, “Kv2.1 channel-derived peptides and methods of use” (University of Pittsburgh—Of the Commonwealth System of …, priority 2014, dated 2018).

What was measured:
neurons = assay: Current clamp / dynamic clamp electrical properties of neurons; type: cell-based
Protocol: (§1) For electrophysiological experiments, mixed cortical neuronal/glial cultures were prepared from embryonic day 16 (E16) Sprague-Dawley rats (Charles River Laboratories, Wilmington, Mass., USA). Donor rats were euthanized by gradual CO2 exposure. Cortices were dissociated with trypsin, and the resultant cell suspension, adjusted to 670,000 cells per well, was plated on glass coverslips in 6-well plates as described previously (Hartnett et al., J Neurochem 68, 1836-1845, 1997). Non-neuronal cell proliferation was inhibited after two weeks in culture with 1-2 μM cytosine arabinoside, and cultures utilized at three to four weeks in vitro. For neuronal transfection, cells were treated for five hours in serum-free medium with 2 μL LIPOFECTAMINE™ 2000 (Invitrogen, Carlsbad, Calif.), 50 μL Optimem (GIBCO, Grand Island, N.Y.), and 1.5 μg DNA per well. For CHO cell transfections, cells were plated on coverslips in 24-well plates at a density of 5.6×10^4 cells per well for electrophysiological measurements or in 100 mm dishes at a density of 1.7×10^6 cells per dish for biochemical studies. Cells were treated for 3-4 hours in serum-free medium with a total of 1.2 μL LIPOFECTAMINE™ and 0.28 μg DNA per well for electrophysiology, or 55.1 μL LIPOFECTAMINE™ and 7.33 μg DNA per dish for biochemistry. Following transfection, cells were maintained in F12 medium containing fetal bovine serum at 37° C., 5% CO2 for 24 hours prior to experimentation.
Current recordings were performed on eGFP-positive co-transfected neurons or CHO cells using the whole-cell patch clamp configuration technique as described previously (McLaughlin et al., J Neurosci 21, 3303-3311, 2001). The intracellular (electrode) solution contained (in mM): 100 K-gluconate, 11 EGTA, 10 KCl, 1 MgCl2, 1 CaCl2×2H2O, 10 HEPES; pH adjusted to 7.2 with concentrated KOH; 2.2 ATP and 0.33 GTP were added and the osmolarity was adjusted to 280 mOsm with sucrose. The extracellular solution contained (in mM): 115 NaCl, 2.5 KCl, 2.0 MgCl2, 10 HEPES, 10 D-glucose; 0.25 μM tetrodotoxin; pH adjusted to 7.2. Measurements were obtained under whole-cell voltage clamp with an Axopatch-1D amplifier and pClamp software (Molecular Devices, Sunnyvale, Calif.), using 2-3 MΩ recording electrodes. Electrodes were pulled from 1.5 mm borosilicate glass (Warner Instruments, Hamden, Conn.) with a model P-97 mechanical pipette puller (Sutter Instruments, Novato, Calif.). Series resistance was partially compensated (80%) in all cases. Currents were filtered at 2 kHz and digitized at 10 kHz with a Digidata 1440A Digitizer (Molecular Devices). K^+ currents were evoked with incremental 10 mV voltage steps to +80 mV from a holding potential of −80 mV. To determine current density values, steady-state current amplitudes were measured 180 msec after the initiation of the +10 mV step and normalized to cell capacitance. For current clamp experiments, the intracellular (electrode) solution contained (in mM): 94 K-gluconate, 30 KCl, 10 phosphocreatine di-tris salt, 10 HEPES, 0.2 EGTA, 4 ATP, 0.3 GTP; pH adjusted to 7.3 with concentrated KOH. […] By repeatedly adjusting the scaling factor k, an automated binary search algorithm determined threshold synaptic conductance (thresh-gsyn), the conductance required to reach firing threshold (Kullmann et al., J Neurophysiol 91, 542-54, 2004).
(§2) It was next evaluated whether C1a441-522 was sufficient to protect neurons against oxidative injury. […]

cortical neurons = assay: Viability of transfected neurons exposed to activated microglia (GFP+ cell counts); type: cell-based, rat; conditions: overnight exposure to activated microglia; vector-expressing cells reduced by nearly 40%
Protocol: as §1, with “Cells were treated for 3-4 hours in serum-free medium with a total of 1.2 μL LIPOFECTAMINE™ and 0.28 μg DNA per well for electrophysiology, or 55.1 μL LIPOFECTAMINE™ and 7.33 μg DNA per dish for biochemistry. Following transfection, cells were maintained in F12 medium containing fetal bovine serum at 37° C., 5% CO2 for 24 hours prior to experimentation.” left out
Viability of transfected neurons was assessed by cell counts of GFP+ cells. […] GFP+ cells were counted in 20 random areas per coverslip using a 20× objective. […]
as §2

B1: C1a441-522: distal segment of C1a, residues 441-522 of rat Kv2.1 (protein, UniProt P15387 441-522, looked up, fragment)
chain: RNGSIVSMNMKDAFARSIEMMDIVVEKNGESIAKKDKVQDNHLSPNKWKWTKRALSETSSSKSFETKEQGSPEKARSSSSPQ
- overall effect of expression on neurons (neurons): relatively innocuous to neurons
- firing frequency as a function of depolarizing current versus vector-expressing neurons (neurons; 1 sec depolarizing current steps, 15-120 pA): small but significant increase
- input resistance versus vector-expressing neurons (neurons; current clamp): no differences
- resting membrane potential versus vector-expressing neurons (neurons; current clamp): no differences
- threshold synaptic conductance versus vector-expressing neurons (neurons; dynamic clamp): no differences
- effect of activated microglia on viability of peptide-expressing neurons (cortical neurons): no detrimental effect
